Measurements published in article PMC6271298, “Pharmacophore Generation from a Drug-like Core Molecule Surrounded by a Library Peptide via the 10BASEd-T on Bacteriophage T7” (Molecules, 2014).
5/6‑FAM = 5/6-carboxyfluorescein

Biological target: T1, streptavidin (UniProt P22629 25-183)
T1 construct: streptavidin; Commercial streptavidin is usually a homotetramer of a processed (core) form; also called SA; source: bought: Wako Pure Chemical Industries (ELISA)
Test: fluorescence polarisation; 4 pmol FAM-labelled peptide with various concentrations of the protein; 50 mM Tris-HCl pH 8.0, 150 mM NaCl, 1 mM TCEP-NaOH, 30 °C; Klotz plot, non-linear least squares fit
Settings: both partners purified

T1 sequence (P22629 25-183): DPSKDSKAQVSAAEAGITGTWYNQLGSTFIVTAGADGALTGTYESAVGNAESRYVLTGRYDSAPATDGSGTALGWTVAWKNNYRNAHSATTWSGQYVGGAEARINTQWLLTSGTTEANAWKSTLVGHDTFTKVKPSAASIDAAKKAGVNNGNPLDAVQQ

Row | Binder | fold lower affinity than the Sal-conjugated peptide | Kd
1 | H-K(5/6‑FAM)AMWCQYHPQNCYKM-NH2 (cysteine pairing not given here, cysteines not alkylated; Assayed under reducing conditions (1 mM TCEP), so the cysteines are free thiols; also called mock peptide; unmodified fluorescent peptide; source: synthetic peptide (solid phase synthesis, reverse-phase HPLC)) [mock (Sal-unconjugated) fluorescent peptide (H2N-K-5/6-FAM-A-M-W-C-Q-Y-H-P-Q-N-C-Y-K-M-NH2)] | ~10 fold | –
2 | KAMWCQYHPQNCYKM (5/6-FAM on the N-terminal lysine (K-5/6-FAM); Sal-conjugated Cys (C*) at both cysteines; C-terminal amide (NH2), Linear peptide; both cysteines are alkylated with 4-acetamidosalicylic acid (thioether); also called Sal-conjugated peptide; Sal-conjugated linear peptide; source: synthetic peptide (solid phase synthesis, HPLC), then conjugated with Sal-IA and purified by reverse-phase HPLC) | – | 180 nM
